In paper PMC9368758, “Cellular Redox Metabolism Is Modulated by the Distinct Localization of Cyclic Nucleotide Phosphodiesterase 5A Isoforms” (International Journal of Molecular Sciences, 2022):
Several values for one entry are separate records, joined by “and”; a condition that tells them apart may be missing. Identical values can stand only once.

Legend:
[1] = biological target: MmPDE5A2 produced in the K. lactis ragx1 mutant (Mus musculus); experiment: native gel or EMSA; native PAGE, 5% non-denaturing gel, Tris/glycine pH 8.3, 4 C, 1.0 ug purified protein, Coomassie; pre-incubated at 30 C up to 3 h with or without DTT, cGMP, sildenafil or diamide
[2] = biological target: MmPDE5A3 produced in the K. lactis ragx1 mutant (Mus musculus); experiment: as above
[3] = biological target: MmPDE5A3 (Mus musculus cGMP-specific phosphodiesterase 5A, isoform A3), produced in K. lactis wild type strain CBS2359 (Mus musculus); experiment: as above
[4] = biological target: MmPDE5A3 (Mus musculus cGMP-specific phosphodiesterase 5A, isoform A3), produced in K. lactis wild type strain CBS2359 (Mus musculus); experiment: SEC; purified protein (300 ug) on Superose 12 HR 10/30, 4 C, 0.20 mL/min, 20 mM HEPES pH 7.0, 1 mM EGTA, 5 mM beta-mercaptoethanol, 5 mM MgCl2, 100 mM NaCl, 2 mM PMSF, 0.05% Triton X-100; fractions tested for cGMP-hydrolysing activity and by native Western blot; column calibrated with MW markers
[5] = biological target: MmPDE5A2 (Mus musculus cGMP-specific phosphodiesterase 5A, isoform A2), produced in K. lactis CBS2359 transformed with p3XFlagPDE5A2 (Mus musculus); experiment: native gel or EMSA; native PAGE, 5% non-denaturing gel, Tris/glycine pH 8.3, 4 C, 1.0 ug purified protein, Coomassie; pre-incubated at 30 C up to 3 h with or without DTT, cGMP, sildenafil or diamide
[6] = biological target: MmPDE5A2 (Mus musculus cGMP-specific phosphodiesterase 5A, isoform A2), produced in K. lactis CBS2359 transformed with p3XFlagPDE5A2 (Mus musculus); experiment: SEC; purified protein (300 ug) on Superose 12 HR 10/30, 4 C, 0.20 mL/min, 20 mM HEPES pH 7.0, 1 mM EGTA, 5 mM beta-mercaptoethanol, 5 mM MgCl2, 100 mM NaCl, 2 mM PMSF, 0.05% Triton X-100; fractions tested for cGMP-hydrolysing activity and by native Western blot; column calibrated with MW markers
[7] = biological target: the molecule itself; experiment: native gel or EMSA; native PAGE of K. lactis cell extracts with in-gel activity staining for G6PDH; cultures on various glucose concentrations, methylene blue, G418, ethanol; extracts also incubated overnight with NAD+ or NADP+

MmPDE5A2 produced in the K. lactis ragx1 mutant (enzyme)
stoichiometry N [1]: 2

MmPDE5A3 produced in the K. lactis ragx1 mutant (enzyme)
stoichiometry N [2]: 2

MmPDE5A3 (Mus musculus cGMP-specific phosphodiesterase 5A, isoform A3), produced in K. lactis wild type strain CBS2359 (enzyme)
stoichiometry N [3]: 2 | stoichiometry N [4]: 2

MmPDE5A2 (Mus musculus cGMP-specific phosphodiesterase 5A, isoform A2), produced in K. lactis CBS2359 transformed with p3XFlagPDE5A2 (enzyme)
stoichiometry N [5]: 2 | stoichiometry N [6]: 2

B1: Glc-6-phosphate dehydrogenase (G6PDH) of Kluyveromyces lactis (enzyme, K. lactis (endogenous in CBS2359), UniProt P48828 1-497, looked up)
chain: MATQFDENTVITIFGASGDLSKKKTFPALFGLYREGYLNPTTKIIGYARSKLSNEDLREKVKPFLKKPNGAKDDAKVNEFLSMVSYHAGPYDSDEGYLELKKIIEEFEAEKKVDEPHRLFYLALPPSIFIDVCSKLKENLYTESGIQRVIVEKPFGHDLQSATELQEKLAPLFSEDELFRIDHYLGKEMVKNLLLMRFGNTFLNAAWNKENIQSVQVVFKEPFGTEGRGGYFDSIGIIRDVMQNHLLQVLTLLTMERPVSFDPESVRDEKVKVLKAFSPIDHDDILIGQYGRSVDGSKPSYLDDETVKEDSKCVTFAAIGFKIANERWDGVPIVMRAGKALNEGKVEIRIQFRRVASGMFTDIPNNELVIRIQPNEAIYLKCNAKTPGLANENQTTELDLTYSERYKNYWIPEAYESLIRDALLGDHSNFVRDDELDVSWKLFTPLLNYLEGPDGPQPKIYPYGCRSPDGLVEFLADHGYTFSKPGSYQWPVTTPKM
notes: glucose-6-phosphate 1-dehydrogenase, Kluyveromyces lactis, endogenous enzyme seen by in-gel activity staining; Seen as a slow (tetramer) and a faster (dimer) band; also called glucose 6-phosphate dehydrogenase; source: endogenous, K. lactis cell extracts
stoichiometry N [7]: 4 and 2
